Broadly, the Kd is the free concentration of one partner at which half of the binding sites on the other are occupied at equilibrium, for simple one-to-one binding. A high value points to lower affinity.

The target in this assay is T1, insoluble type I collagen fibers (UniProt P02453 162-1217; P02465 80-1117).
T1 construct: type I collagen, alpha-1(I) chain; type I collagen, alpha-2(I) chain; Triple-helical, insoluble fibres; also called insoluble collagen fibers; native collagen; source: bought: Sigma‐Aldrich
The experiment in a line: collagen-binding assay with Scatchard analysis; 2.5 mg insoluble type I collagen fibers in 50 μL binding buffer (50 mM Tris/HCl, 0.2 M NaCl, 5 mM CaCl2, pH 7.5) with 0.1–2.0 mg/mL C‐terminal segment and 0.05 mg/mL BSA; unbound protein in the filtrate by SDS/PAGE densitometry; triplicate; least‐squares fit. The following applies: both partners purified.

T1 sequence (P02453 162-1217, chain 1 of 2): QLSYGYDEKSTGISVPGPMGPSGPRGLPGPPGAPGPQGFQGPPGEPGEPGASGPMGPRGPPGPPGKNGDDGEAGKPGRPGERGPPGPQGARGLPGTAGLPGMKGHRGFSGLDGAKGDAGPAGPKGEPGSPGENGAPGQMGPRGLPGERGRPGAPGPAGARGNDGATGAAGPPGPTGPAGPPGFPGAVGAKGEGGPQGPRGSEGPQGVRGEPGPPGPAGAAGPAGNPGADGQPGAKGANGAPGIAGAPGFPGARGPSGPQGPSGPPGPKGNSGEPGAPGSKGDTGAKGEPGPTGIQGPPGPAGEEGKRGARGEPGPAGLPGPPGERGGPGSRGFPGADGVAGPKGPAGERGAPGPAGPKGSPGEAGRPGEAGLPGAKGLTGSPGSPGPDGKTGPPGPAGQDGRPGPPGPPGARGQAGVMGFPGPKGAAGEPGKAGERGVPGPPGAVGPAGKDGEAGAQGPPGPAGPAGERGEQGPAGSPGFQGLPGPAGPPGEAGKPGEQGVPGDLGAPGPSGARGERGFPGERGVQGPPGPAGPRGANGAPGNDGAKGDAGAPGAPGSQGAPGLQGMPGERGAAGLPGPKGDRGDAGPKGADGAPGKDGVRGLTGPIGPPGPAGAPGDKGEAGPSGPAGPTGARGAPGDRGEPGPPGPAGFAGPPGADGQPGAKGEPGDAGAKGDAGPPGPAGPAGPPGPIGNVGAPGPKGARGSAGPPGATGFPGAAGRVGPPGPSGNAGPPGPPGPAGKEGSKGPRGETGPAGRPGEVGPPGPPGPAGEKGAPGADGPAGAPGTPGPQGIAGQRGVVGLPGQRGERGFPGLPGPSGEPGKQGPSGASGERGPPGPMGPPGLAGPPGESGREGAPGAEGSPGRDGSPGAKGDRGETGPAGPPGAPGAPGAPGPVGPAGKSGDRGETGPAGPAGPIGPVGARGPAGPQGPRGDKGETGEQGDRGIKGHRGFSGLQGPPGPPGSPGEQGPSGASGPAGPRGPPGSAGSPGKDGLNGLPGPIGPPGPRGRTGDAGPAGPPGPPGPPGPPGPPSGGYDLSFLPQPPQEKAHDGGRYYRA
T1 sequence (P02465 80-1117, chain 2 of 2): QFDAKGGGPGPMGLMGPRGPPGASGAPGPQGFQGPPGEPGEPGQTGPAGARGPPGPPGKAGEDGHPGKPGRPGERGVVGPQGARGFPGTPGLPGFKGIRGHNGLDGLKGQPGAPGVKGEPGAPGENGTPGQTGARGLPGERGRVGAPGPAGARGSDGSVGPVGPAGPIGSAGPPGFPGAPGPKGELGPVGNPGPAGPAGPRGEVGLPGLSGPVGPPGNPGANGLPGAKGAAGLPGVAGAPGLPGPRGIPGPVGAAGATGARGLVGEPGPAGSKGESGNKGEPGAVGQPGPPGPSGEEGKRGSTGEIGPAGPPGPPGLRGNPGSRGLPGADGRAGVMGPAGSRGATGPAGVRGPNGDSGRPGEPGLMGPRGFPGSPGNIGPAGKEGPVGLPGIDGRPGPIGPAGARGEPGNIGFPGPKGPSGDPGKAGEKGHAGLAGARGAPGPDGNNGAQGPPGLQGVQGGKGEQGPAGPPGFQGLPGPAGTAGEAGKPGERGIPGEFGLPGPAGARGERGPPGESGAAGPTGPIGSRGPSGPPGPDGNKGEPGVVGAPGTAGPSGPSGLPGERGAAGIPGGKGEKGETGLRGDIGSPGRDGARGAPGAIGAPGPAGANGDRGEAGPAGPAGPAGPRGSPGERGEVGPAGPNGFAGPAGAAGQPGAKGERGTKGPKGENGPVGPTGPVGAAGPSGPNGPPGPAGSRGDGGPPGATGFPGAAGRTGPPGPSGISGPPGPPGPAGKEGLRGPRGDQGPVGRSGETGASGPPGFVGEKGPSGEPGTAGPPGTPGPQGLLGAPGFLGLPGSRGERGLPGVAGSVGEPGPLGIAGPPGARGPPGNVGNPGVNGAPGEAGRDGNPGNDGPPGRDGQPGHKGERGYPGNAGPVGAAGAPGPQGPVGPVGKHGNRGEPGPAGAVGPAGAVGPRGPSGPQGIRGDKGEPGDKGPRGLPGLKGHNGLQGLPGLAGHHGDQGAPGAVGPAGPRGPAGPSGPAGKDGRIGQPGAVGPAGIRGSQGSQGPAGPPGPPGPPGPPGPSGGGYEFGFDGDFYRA

B1: recombinant C‐terminal segment (aa 616–767) including the PPC domain of Grimontia hollisae strain 1706B collagenase (domain or fragment)
chain: TEALAKGDSGAGNGEGTGSGNEGGGESGGNTGLPENCAVLPKISDGRLALDEAACLADTASASDVLWFSIPAVSEYQTIAITAGNGTGDLTLEYSNLNWPDGTNVQASSANMGNSECIILEHQANYWGYLKVSGSFENAALLVEAGSNQCRQ
notes: 15.4 kDa; The forward primer carries the enterokinase site (DDDDK) just before residue T616, so the cleaved His-tag was probably N-terminal (surmised); QTOF-MS mass 15 445.01 Da fits two intrachain disulfide bonds; also called G. hollisae
B1: the Kd turned out to be 27.2 µM.

For the origin of these results see paper PMC6168687, “The C‐terminal segment of collagenase in Grimontia hollisae binds collagen to enhance collagenolysis” (FEBS Open Bio, 2018).
